Measured values reported in US20100222256A1.

Target: CXCR4 ligand
Experiment: cell-based or functional assay

T140 (peptide) was tested, and the EC50 (nM): anti-HIV activity, concentration where MT-4 cell death by HIV-1 (IIIB) infection is inhibited by 50% (MTT method) was 3.3 nM.
